In IntAct's records for PubMed 24270572:

B1: Endoribonuclease ZC3H12A (Homo sapiens), Q5D1E8 (parent)
chain: MSGPCGEKPVLEASPTMSLWEFEDSHSRQGTPRPGQELAAEEASALELQMKVDFFRKLGYSSTEIHSVLQKLGVQADTNTVLGELVKHGTATERERQTSPDPCPQLPLVPRGGGTPKAPNLEPPLPEEEKEGSDLRPVVIDGSNVAMSHGNKEVFSCRGILLAVNWFLERGHTDITVFVPSWRKEQPRPDVPITDQHILRELEKKKILVFTPSRRVGGKRVVCYDDRFIVKLAYESDGIVVSNDTYRDLQGERQEWKRFIEERLLMYSFVNDKFMPPDDPLGRHGPSLDNFLRKKPLTLEHRKQPCPYGRKCTYGIKCRFFHPERPSCPQRSVADELRANALLSPPRAPSKDKNGRRPSPSSQSSSLLTESEQCSLDGKKLGAQASPGSRQEGLTQTYAPSGRSLAPSGGSGSSFGPTDWLPQTLDSLPYVSQDCLDSGIGSLESQMSELWGVRGGGPGEPGPPRAPYTGYSPYGSELPATAAFSAFGRAMGAGHFSVPADYPPAPPAFPPREYWSEPYPLPPPTSVLQEPPVQSPGAGRSPWGRAGSLAKEQASVYTKLCGVFPPHLVEAVMGRFPQLLDPQQLAAEILSYKSQHPSE

Variants of: B1
Conditions: with ubp10_human USP10, Q14694
Chain of ubp10_human USP10, Q14694 (Q14694 whole entry): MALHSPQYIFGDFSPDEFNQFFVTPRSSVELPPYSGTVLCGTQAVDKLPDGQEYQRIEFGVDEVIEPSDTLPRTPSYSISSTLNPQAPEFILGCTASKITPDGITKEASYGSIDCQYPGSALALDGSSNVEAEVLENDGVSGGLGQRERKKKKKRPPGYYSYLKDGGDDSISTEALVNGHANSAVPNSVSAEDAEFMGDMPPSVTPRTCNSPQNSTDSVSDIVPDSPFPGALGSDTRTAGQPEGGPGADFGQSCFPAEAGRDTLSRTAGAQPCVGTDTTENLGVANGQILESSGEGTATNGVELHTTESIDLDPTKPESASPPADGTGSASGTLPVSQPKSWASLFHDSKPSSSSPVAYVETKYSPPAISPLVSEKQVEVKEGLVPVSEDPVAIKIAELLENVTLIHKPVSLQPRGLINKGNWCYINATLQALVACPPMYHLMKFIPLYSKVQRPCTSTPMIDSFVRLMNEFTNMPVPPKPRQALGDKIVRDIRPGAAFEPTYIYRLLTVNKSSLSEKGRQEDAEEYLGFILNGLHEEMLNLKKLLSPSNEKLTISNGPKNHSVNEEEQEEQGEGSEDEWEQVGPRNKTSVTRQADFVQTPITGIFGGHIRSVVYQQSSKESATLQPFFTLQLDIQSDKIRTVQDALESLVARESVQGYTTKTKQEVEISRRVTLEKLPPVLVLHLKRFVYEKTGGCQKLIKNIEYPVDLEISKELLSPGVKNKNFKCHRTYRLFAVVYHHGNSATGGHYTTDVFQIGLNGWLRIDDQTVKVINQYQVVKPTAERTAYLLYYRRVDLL

Row | Variant | effect of a mutation on the interaction
1 | MSGPCGEKPVLEASPTMSLWEFEDSHSRQGTPRPGQELAAEEASALELQMKVDFFRKLGYSSTEIHSVLQKLGVQADTNTVLGELVKHGTATERERQTSPDPCPQLPLVPRGGGTPKAPNLEPPLPEEEKEGSDLRPVVIDGSNVAMSHGNKEVFSCRGILLAVNWFLERGHTDITVFVPSWRKEQPRPDVPITDQHILRELEKKKILVFTPSRRVGGKRVVCYDDRFIVKLAYESDGIVVSNDTYRDLQGERQEWKRFIEERLLMYSFVNDKFMPPDDPLGRHGPSLDNFLRKKPLTLEHRKQPRPYGRKCTYGIKCRFFHPERPSCPQRSVADELRANALLSPPRAPSKDKNGRRPSPSSQSSSLLTESEQCSLDGKKLGAQASPGSRQEGLTQTYAPSGRSLAPSGGSGSSFGPTDWLPQTLDSLPYVSQDCLDSGIGSLESQMSELWGVRGGGPGEPGPPRAPYTGYSPYGSELPATAAFSAFGRAMGAGHFSVPADYPPAPPAFPPREYWSEPYPLPPPTSVLQEPPVQSPGAGRSPWGRAGSLAKEQASVYTKLCGVFPPHLVEAVMGRFPQLLDPQQLAAEILSYKSQHPSE [C306R] | disrupting interaction

Variants of: B1
Conditions: with ubp10_human USP10, Q14694
Remark: another data set of the same source

Row | Variant | effect of a mutation on the interaction
2 | MSGPCGEKPVLEASPTMSLWEFEDSHSRQGTPRPGQELAAEEASALELQMKVDFFRKLGYSSTEIHSVLQKLGVQADTNTVLGELVKHGTATERERQTSPDPCPQLPLVPRGGGTPKAPNLEPPLPEEEKEGSDLRPVVINGSNVAMSHGNKEVFSCRGILLAVNWFLERGHTDITVFVPSWRKEQPRPDVPITDQHILRELEKKKILVFTPSRRVGGKRVVCYDDRFIVKLAYESDGIVVSNDTYRDLQGERQEWKRFIEERLLMYSFVNDKFMPPDDPLGRHGPSLDNFLRKKPLTLEHRKQPCPYGRKCTYGIKCRFFHPERPSCPQRSVADELRANALLSPPRAPSKDKNGRRPSPSSQSSSLLTESEQCSLDGKKLGAQASPGSRQEGLTQTYAPSGRSLAPSGGSGSSFGPTDWLPQTLDSLPYVSQDCLDSGIGSLESQMSELWGVRGGGPGEPGPPRAPYTGYSPYGSELPATAAFSAFGRAMGAGHFSVPADYPPAPPAFPPREYWSEPYPLPPPTSVLQEPPVQSPGAGRSPWGRAGSLAKEQASVYTKLCGVFPPHLVEAVMGRFPQLLDPQQLAAEILSYKSQHPSE [D141N] | disrupting interaction
